Data reported in patent US7375083B2, “Pharmaceutical compositions for prevention of overdose or abuse” (Shire LLC, priority 2003, dated 2008).
Where a SMILES comes first, the peptide text is derived from it. The star is where a group is joined. X1 = COc1ccc2c3c1O[C@H]1C(O*)=CC[C@H]4[C@@H](C2)N(C)CC[C@]314

Experiments:
[1] = Oral pharmacokinetics in rats, plasma d-amphetamine by ELISA; conditions: for Percent AUC / Percent Cmax: Oral; for Bioequivalence with amphetamine: rat, oral
[2] = in vivo; cited from earlier work
[3] = Intranasal bioavailability of hydrocodone conjugates in rats, LC/MS/MS; conditions: intranasal, 1 mg/kg dose; for AUC (ng/ml h) 0-1 h / Cmax: hydrocodone plus hydromorphone; for Percent HC (AUC) / Percent HC (Cmax): relative to hydrocodone bitartrate
[4] = Intravenous bioavailability of hydrocodone conjugates in rats, LC/MS/MS; conditions: intravenous, 1 mg/kg dose
[5] = Oral bioavailability of hydrocodone conjugates in rats, LC/MS/MS; conditions: for AUC (ng/ml h) 0-8 h / Cmax: hydrocodone plus hydromorphone; for Percent HC (AUC) / Percent HC (Cmax): relative to hydrocodone bitartrate
[6] = relative to amphetamine (first value where two are given)
[7] = relative to amphetamine, second of two values printed in the cell
[8] = relative to hydrocodone bitartrate

## CC(Cc1ccccc1)NC(=O)CNC(=O)[C@@H](N)CCCCN (some centres unmarked) [KG-Amp]
[1]; [6]
  Percent AUC: 69%
  Percent Cmax: 71%

## CC(C)CC(N)C(=O)NC(C)Cc1ccccc1 [L-Amp]
[1]; [6]
  Percent AUC: 65%
  Percent Cmax: 81%

## CC(C)C[C@H](N)C(=O)N[C@@H](CCC(=O)O)C(=O)NC(C)Cc1ccccc1 (some centres unmarked) [LE-Amp]
[1]; [6]
  Percent AUC: 40%
  Percent Cmax: 28%

## COc1ccc2c3c1O[C@H]1C(=O)CC[C@@]4(O)[C@@H](C2)N(C)CC[C@]314 [Oxycodone]
[2]
  Therapeutic plasma concentration: 10 to 100 ng/mL
  Toxic plasma concentration: greater than 200 ng/mL

## CC(Cc1ccccc1)NC(=O)C(N)Cc1ccccc1 (centres unmarked) [Phe-Amp, 2-amino-3-phenylpropanoic acid-(1-methyl-2-phenylethyl)-amide]
[1]
  Bioequivalence with amphetamine: bioequivalent with amphetamine

## CC(Cc1ccccc1)NC(=O)C(N)CO (centres unmarked) [S-Amp]
[1]; [6]
  Percent AUC: 79%
  Percent Cmax: 62%
[1]; [7]
  Percent AUC: 55%
  Percent Cmax: 75%

## CC(Cc1ccccc1)NC(=O)C(N)CO (centres unmarked) [Ser-Amp, 2-amino-3-hydroxylpropanoic acid-(1-methyl-2-phenylethyl)-amide]
[1]
  Bioequivalence with amphetamine: not bioequivalent with amphetamine

## CC[C@H](C)[C@H](NC(=O)[C@H](Cc1ccccc1)NC(=O)[C@H](Cc1ccccc1)NC(=O)[C@H](Cc1ccc(O)cc1)NC(=O)[C@@H](N)Cc1ccc(O)cc1)C(=O)OC1=CC[C@H]2[C@H]3Cc4ccc(OC)c5c4[C@@]2(CCN3C)[C@H]1O5 [YYFFI[SEQ ID NO: 3]-HC] (H-YYFFI-X1)
[3]; 5 Minutes
  hydrocodone plus hydromorphone concentration: 28 ng/mL
[3]; 15 Minutes
  hydrocodone plus hydromorphone concentration: 27 ng/mL
[3]; 30 Minutes
  hydrocodone plus hydromorphone concentration: 16 ng/mL
[3]; 60 Minutes
  hydrocodone plus hydromorphone concentration: 21 ng/mL
[3]
  AUC (ng/ml h) 0-1 h: 20 ng·h/mL
  Cmax: 28 ng/mL
  Percent HC (AUC): 100%
  Percent HC (Cmax): 5%

## CC[C@H](C)[C@H](NC(=O)[C@H](Cc1ccc(O)cc1)NC(=O)[C@@H](N)Cc1ccc(O)cc1)C(=O)OC1=CC[C@H]2[C@H]3Cc4ccc(OC)c5c4[C@@]2(CCN3C)[C@H]1O5 [YYI-HC, Tyr-Tyr-Ile-Hydrocodone]
[3]; 5 Minutes
  hydrocodone plus hydromorphone concentration: 31 ng/mL
[3]; 15 Minutes
  hydrocodone plus hydromorphone concentration: 17 ng/mL
[3]; 30 Minutes
  hydrocodone plus hydromorphone concentration: 12 ng/mL
[3]; 60 Minutes
  hydrocodone plus hydromorphone concentration: 2 ng/mL
[3]
  AUC (ng/ml h) 0-1 h: 12 ng·h/mL
  Cmax: 31 ng/mL
  Percent HC (AUC): 4%
  Percent HC (Cmax): 6%
[4]; 5 Minutes
  hydrocodone plus hydromorphone concentration: 9 ng/mL
[4]; 15 Minutes
  hydrocodone plus hydromorphone concentration: 13 ng/mL
[4]; 30 Minutes
  hydrocodone plus hydromorphone concentration: 13 ng/mL
[4]; 60 Minutes
  hydrocodone plus hydromorphone concentration: 3 ng/mL
[4]; hydrocodone plus hydromorphone
  AUC (ng/ml h) 0-1 h: 10 ng·h/mL
  Cmax: 13 ng/mL
[4]; [8]
  Percent HC (AUC): 7%
  Percent HC (Cmax): 6%
[5]; oral bioavailability
  Percent Decrease 1 mg/kg vs. 5 mg/kg AUC: 41%
  Percent Decrease 1 mg/kg vs. 5 mg/kg Cmax: 60%
[5]; oral, 1 mg/kg dose, 0.5 Hours
  hydrocodone plus hydromorphone concentration: 9.2 ng/mL
[5]; oral, 1 mg/kg dose, 1.5 Hours
  hydrocodone plus hydromorphone concentration: 4.3 ng/mL
[5]; oral, 1 mg/kg dose, 3 Hours
  hydrocodone plus hydromorphone concentration: 1.5 ng/mL
[5]; oral, 1 mg/kg dose, 5 Hours
  hydrocodone plus hydromorphone concentration: 1.1 ng/mL
[5]; oral, 1 mg/kg dose, 8 Hours
  hydrocodone plus hydromorphone concentration: 1.8 ng/mL
[5]; oral, 1 mg/kg dose
  AUC (ng/ml h) 0-8 h: 20.4 ng·h/mL
  Cmax: 9.2 ng/mL
  Percent HC (AUC): 78%
  Percent HC (Cmax): 100%
[5]; oral, 5 mg/kg dose, 0.5 Hours
  hydrocodone plus hydromorphone concentration: 15 ng/mL
[5]; oral, 5 mg/kg dose, 1.5 Hours
  hydrocodone plus hydromorphone concentration: 6.3 ng/mL
[5]; oral, 5 mg/kg dose, 3 Hours
  hydrocodone plus hydromorphone concentration: 3.3 ng/mL
[5]; oral, 5 mg/kg dose, 5 Hours
  hydrocodone plus hydromorphone concentration: 1.6 ng/mL
[5]; oral, 5 mg/kg dose, 8 Hours
  hydrocodone plus hydromorphone concentration: 2.7 ng/mL
[5]; oral, 5 mg/kg dose
  AUC (ng/ml h) 0-8 h: 33 ng·h/mL
  Cmax: 15 ng/mL
  Percent HC (AUC): 46%
  Percent HC (Cmax): 41%
[5]; rat, oral, 5 mg/kg
  Peak levels and bioavailability: substantially decreased
